The supplement of paper PMC6757056
± gives the standard deviation of the averaged measurements.

B1: library; a variant is named by its letters at N, in order (parent)
chain: GCUGUCACCGGUGUAUUACCCUAGUGGUCGACCGGUCUGAUGAGUCUNNNNNNAGACGAAACAGC

What was measured:
hypoxanthine [1] = variants of: B1; assay: FACS-Seq fitted mean relative fluorescence mCherry/BFP without ligand (log10 relative fluorescence); ligand: hypoxanthine (xanthine aptamer); higher = higher reporter protein expression; conditions: HEK293T, ligand present: no
Method in brief: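 HEK293T libraries were lentivirally transduced with an mCherry reporter carrying the ribozyme switch and an EF1α-BFP marker, enriched, and incubated for 48 h with or without ligand before sorting into 6 bins by mCherry/BFP. Genomic DNA from each bin was PCR-amplified, barcoded and sequenced on MiSeq. Fluorescence is the fitted normal mean of the bin counts. The fit used log10(mCherry/BFP), and means were scaled to five spiked-in control ribozymes.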

hypoxanthine [2] = variants of: B1; assay: normalized RNA/DNA level with ligand (relative to sTRSVctl = 100) (log10 (% of sTRSVctl)); ligand: hypoxanthine (xanthine aptamer); higher = less ribozyme self-cleavage, higher mRNA level; conditions: ligand concentration (+) RNA-Seq: 5 mM, HEK293T, reporter: mCherry (pCS4076), ligand present: yes
Procedure: (§1)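 Hammerhead (sTRSV) ribozyme switch libraries with a ligand aptamer grafted on stem I and a randomized N4-6 loop II, cloned into the 3' UTR of mCherry and transiently transfected into HEK293T cells; RNA-Seq 72 h post transfection with ligand added 1 h before transfection; RNA read count / plasmid DNA read count normalized to the non-cleaving sTRSVctl (x100), log10; sequences with >100 DNA reads. FACS-Seq: lentiviral library sorted into 6 bins after 48 h ligand, log-normal fit mean of mCherry/BFP scaled to controls. Printed sequences are partial switch sequences.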

hypoxanthine [3] = variants of: B1; assay: normalized RNA/DNA level without ligand (relative to sTRSVctl = 100) (log10 (% of sTRSVctl)); ligand: hypoxanthine (xanthine aptamer); higher = less ribozyme self-cleavage, higher mRNA level; conditions: HEK293T, reporter: mCherry (pCS4076), ligand present: no
Procedure: as §1

hypoxanthine [4] = variants of: B1; assay: FACS-Seq fitted mean relative fluorescence mCherry/BFP with ligand (log10 relative fluorescence); ligand: hypoxanthine (xanthine aptamer); ligand concentration (+) FACS-Seq: 5 mM; higher = higher reporter protein expression; conditions: HEK293T, ligand present: yes
Procedure: as §1

Variant	FACS-Seq fitted mean (log10) (hypoxanthine [1])	normalized RNA/DNA level with ligand (log10) (hypoxanthine [2])	normalized RNA/DNA level without ligand (log10) (hypoxanthine [3])	FACS-Seq fitted mean (log10) (hypoxanthine [4])
GAGACA	0.3113 ± 0.00099	1.905 ± 0.0057	1.68 ± 0.029	0.548 ± 0.014
AAGAGU	0.323 ± 0.065	1.81 ± 0.025	1.4 ± 0.047	0.664 ± 0.051
AAGAGA	0.1774 ± 0.00084	1.8 ± 0.047	1.25 ± 0.055	0.598 ± 0.033
AAGAGG	-0.185 ± 0.01	1.43 ± 0.017	1.065 ± 0.0061	0.478 ± 0.048
AAGGGA	0.273 ± 0.057	1.83 ± 0.035	1.44 ± 0.017	0.545 ± 0.02
AAGGGC	0.365 ± 0.031	1.9146 ± 0.00071	1.75 ± 0.023	0.576 ± 0.022
AAGGGU	0.236 ± 0.0092	1.835 ± 0.0086	1.54 ± 0.072	0.4 ± 0.093
AAGGGG	0.115 ± 0.014	1.78 ± 0.031	1.203 ± 0.002	0.386 ± 0.1
CAGGAA	0.2364 ± 0.0018	1.958 ± 0.014	1.58 ± 0.074	0.529 ± 0.019
CAGGAU	0.34323 ± 0.00015	1.947 ± 0.013	1.682 ± 0.015	0.512 ± 0.028
CAGCUC	0.219 ± 0.029	2.03 ± 0.022	1.972 ± 0.014	0.115 ± 0.03
GAGAGG	0.00193 ± 0.027	1.45 ± 0.017	1.01 ± 0.1	0.644 ± 0.032
GAGAGC	0.164 ± 0.036	1.8 ± 0.033	1.27 ± 0.072	0.494 ± 0.031
GAGAGA	0.257 ± 0.028	1.81 ± 0.02	1.34 ± 0.042	0.585 ± 0.043
UAGAGG	0.0918 ± 0.042	1.75 ± 0.038	1.21 ± 0.03	0.552 ± 0.011
UAGAGA	-0.0593 ± 0.041	1.9 ± 0.051	1.39 ± 0.036	0.431 ± 0.029
UAGAGU	0.11 ± 0.061	1.74 ± 0.09	1.21 ± 0.04	0.536 ± 0.099
GAGGUG	0.14 ± 0.057	1.78 ± 0.031	1.33 ± 0.025	0.551 ± 0.026

Variant	FACS-Seq fitted mean (log10) (hypoxanthine [1])	normalized RNA/DNA level with ligand (log10) (hypoxanthine [2])	normalized RNA/DNA level without ligand (log10) (hypoxanthine [3])	FACS-Seq fitted mean (log10) (hypoxanthine [4])
AACUCG	0.382 ± 0.056	1.92 ± 0.033	1.582 ± 0.0054	0.644 ± 0.022
GAGCAC	0.773 ± 0.029	1.89 ± 0.037	1.71 ± 0.05	0.682 ± 0.074
GAGCAG	-0.00628 ± 0.045	1.67 ± 0.027	1.19 ± 0.024	0.5054 ± 0.0013
GAGCAA	0.362 ± 0.027	1.892 ± 0.013	1.581 ± 0.0039	0.596 ± 0.09
GAGAUG	0.1129 ± 0.00042	1.65 ± 0.064	1.14 ± 0.05	0.707 ± 0.033
GAGAUC	0.247 ± 0.015	1.94 ± 0.021	1.83 ± 0.053	0.211 ± 0.004
GAGAUA	0.345 ± 0.013	1.869 ± 0.015	1.65 ± 0.0036	0.362 ± 0.087
UAGAUG	-0.00441 ± 0.085	1.9 ± 0.081	1.615 ± 0.0023	0.344 ± 0.03
GACUUG	0.475 ± 0.072	1.84 ± 0.054	1.5 ± 0.034	0.228 ± 0.36
AACGGU	0.118 ± 0.036	1.88 ± 0.034	1.577 ± 0.01	0.3457 ± 0.0031
AACGGG	0.0434 ± 0.0087	1.83 ± 0.074	1.38 ± 0.036	0.516 ± 0.021
GACUAU	0.185 ± 0.051	1.92 ± 0.077	1.829 ± 0.016	0.377 ± 0.004
GACUAA	0.354 ± 0.073	1.89 ± 0.027	1.796 ± 0.0046	0.515 ± 0.01
UAGGGG	0.118 ± 0.086	1.87 ± 0.037	1.5 ± 0.022	0.393 ± 0.018
UAGGGU	0.526 ± 0.034	1.84 ± 0.067	1.5 ± 0.027	0.632 ± 0.075
CAGUAU	0.355 ± 0.032	1.92 ± 0.031	1.61 ± 0.062	0.629 ± 0.094
CAGUAG	0.475 ± 0.064	1.91 ± 0.11	1.57 ± 0.026	0.586 ± 0.0075
CACGUA	0.4515 ± 0.0024	1.9 ± 0.016	1.784 ± 0.0067	0.594 ± 0.022
